No end group written: not given here.
B1: PAK1 peptide (DIQDKPPAPPMRNTST), fluorescein isothiocyanate-conjugated (peptide)
peptide: DIQDKPPAPPMRNTST
modifications: also: fluorescein isothiocyanate-conjugated (position not given here)
notes: peptide of PAK1, ligand of NCK2 SH3-2; also called PAK1 target peptide
B2: Cd3ε peptide (RGQNKERPPPVPNPDY), fluorescein isothiocyanate-conjugated (peptide)
peptide: RGQNKERPPPVPNPDY
modifications: also: fluorescein isothiocyanate-conjugated (position not given here)
notes: peptide of CD3 epsilon, ligand of NCK2 SH3-1; also called CD3Ɛ

Target: T1, NCK2 full-length recombinant protein (mouse, WT, tag-free) (mouse, UniProt O55033 1-380)
T1 construct: NCK2, mouse, full-length recombinant; also called WT NCK2; NCK2 1|2|3; source: E. coli BL21 (DE3), purified (GSTrap, TEV cleavage, HisTrap)
T1 sequence (O55033 whole entry): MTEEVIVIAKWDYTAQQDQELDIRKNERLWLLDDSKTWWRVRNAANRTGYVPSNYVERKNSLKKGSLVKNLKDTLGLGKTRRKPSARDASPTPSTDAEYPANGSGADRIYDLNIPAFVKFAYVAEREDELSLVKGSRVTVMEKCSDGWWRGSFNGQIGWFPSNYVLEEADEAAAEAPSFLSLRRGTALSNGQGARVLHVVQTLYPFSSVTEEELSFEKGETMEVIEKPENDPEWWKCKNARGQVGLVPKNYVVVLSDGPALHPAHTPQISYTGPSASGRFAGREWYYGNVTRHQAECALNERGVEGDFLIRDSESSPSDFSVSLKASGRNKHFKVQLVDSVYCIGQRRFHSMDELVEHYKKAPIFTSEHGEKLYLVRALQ
Test: fluorescence polarisation; 40 nM fluorescein isothiocyanate-conjugated peptide, NCK2 titrated (0-150 μM for CD3ε, 0-175 μM for PAK1); 17 mM Tris-HCl pH 8, 100 mM NaCl; one-site total binding model; triplicates
Settings: both partners purified

| Binder | binding result |
| --- | --- |
| B1 | binds |
| B2 | binds |

— paper PMC7954794, “Protein context shapes the specificity of SH3 domain-mediated interactions in vivo” (Nature Communications, 2021)
